Experimental data as given in patent US20120042415A1.

Molecular target: wild type pokeweed antiviral protein (PAP) (pokeweed) (UniProt P10297)
Assay: cell-based or functional assay

Sequence of UniProt P10297 (P10297 23-285 limits assumed): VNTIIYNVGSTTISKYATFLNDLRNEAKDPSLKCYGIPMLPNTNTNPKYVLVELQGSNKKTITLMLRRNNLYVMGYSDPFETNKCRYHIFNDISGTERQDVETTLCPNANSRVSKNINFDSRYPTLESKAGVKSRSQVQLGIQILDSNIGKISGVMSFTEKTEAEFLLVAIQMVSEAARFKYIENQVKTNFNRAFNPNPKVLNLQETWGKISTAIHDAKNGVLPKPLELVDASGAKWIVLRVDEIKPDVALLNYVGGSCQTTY

## yeast wild type ribosomal protein L3 (full length) (from UniProt P14126 1-387)
  transformation frequency of tobacco with L3+PAP (NT243): 24%
